From PMC3807708
pKd: −log10 of the molar value.

Experiments:
[1] = target: extracellular domain of human interferon-γ receptor 1 (IFN-γ-Rx), mutant H222R (human) (UniProt P15260); experiment: SPR; His-tagged receptor immobilised on Ni2+-coated HTG chip; IFN-γ-SC as analyte; PBST; 25 °C; preliminary data of temperature dependency
[2] = target: extracellular domain of human interferon-γ receptor 1 (IFN-γ-Rx), mutant N96W (human) (UniProt P15260); experiment: as above
[3] = target: extracellular domain of human interferon-γ receptor 1 (IFN-γ-Rx), mutant S95R (human) (UniProt P15260); experiment: as above
[4] = target: extracellular domain of human interferon-γ receptor 1 (IFN-γ-Rx), wild type (human) (UniProt P15260); experiment: as above
IFN-γ-Rx K115Y (human) = IFN-γ-Rx K115Y (human) (UniProt P15260); experiment: SPR; ProteOn XPR36; His-tagged receptor immobilised on Ni2+-activated HTG chip; IFN-γ-SC as analyte, 1.2 to 99 nM; PBST (PBS pH 7.4, 0.005% Tween20); 25°C; 1:1 Langmuir with drift model; doubly referenced
IFN-γ-Rx N65R (human) = IFN-γ-Rx N65R (human) (UniProt P15260); experiment: as above
IFN-γ-Rx N70G (human) = IFN-γ-Rx N70G (human) (UniProt P15260); experiment: as above
[5] = target: IFN-γ-Rx N70G + S95R (human) (UniProt P15260); experiment: as above
[6] = target: IFN-γ-Rx N70G + S95R + H222R (human) (UniProt P15260); experiment: as above
IFN-γ-Rx N96F (human) = IFN-γ-Rx N96F (human) (UniProt P15260); experiment: as above
IFN-γ-Rx N96W (human) = IFN-γ-Rx N96W (human) (UniProt P15260); experiment: as above
[7] = target: IFN-γ-Rx N96W + H222R (human) (UniProt P15260); experiment: as above
[8] = target: IFN-γ-Rx S95R + H222R (human) (UniProt P15260); experiment: as above
IFN-γ-Rx T166M (human) = IFN-γ-Rx T166M (human) (UniProt P15260); experiment: as above
IFN-γ-Rx T166Y (human) = IFN-γ-Rx T166Y (human) (UniProt P15260); experiment: as above
[9] = target: extracellular domain of human interferon-γ receptor 1 (IFN-γ-Rx), wild type (human) (UniProt P15260); experiment: as above

With “single-chain form of human interferon-γ (IFN-γ-SC) (ligand)” the pKd [1] was 7.52, the pKd [2] was 8.21 and the pKd [3] was 7.16. The pKd [4] was 7.52, the pKd (IFN-γ-Rx K115Y (human)) was 7.40 and the koff (IFN-γ-Rx K115Y (human)) was 0.0391 s⁻¹. For the same substance, the kon (IFN-γ-Rx K115Y (human)) was 979000 M⁻¹ s⁻¹, the pKd (IFN-γ-Rx N65R (human)) was 7.15 and the koff (IFN-γ-Rx N65R (human)) was 0.0628 s⁻¹. For the same substance, the kon (IFN-γ-Rx N65R (human)) was 882000 M⁻¹ s⁻¹, the pKd (IFN-γ-Rx N70G (human)) was 7.63 and the koff (IFN-γ-Rx N70G (human)) was 0.0264 s⁻¹. It also gave a kon (IFN-γ-Rx N70G (human)) of 1.12e+06 M⁻¹ s⁻¹, a pKd [5] of 7.25 and a koff [5] of 0.0494 s⁻¹. The kon [5] was 889000 M⁻¹ s⁻¹, the pKd [6] was 7.43 and the koff [6] was 0.0401 s⁻¹. The kon [6] was 1.09e+06 M⁻¹ s⁻¹, the pKd (IFN-γ-Rx N96F (human)) was 7.55 and the koff (IFN-γ-Rx N96F (human)) was 0.0283 s⁻¹. For the same substance, the kon (IFN-γ-Rx N96F (human)) was 1.01e+06 M⁻¹ s⁻¹, the pKd (IFN-γ-Rx N96W (human)) was 8.20 and the koff (IFN-γ-Rx N96W (human)) was 0.00909 s⁻¹. The kon (IFN-γ-Rx N96W (human)) was 1.43e+06 M⁻¹ s⁻¹, the pKd [7] was 8.38 and the koff [7] was 0.01 s⁻¹. For the same substance, the kon [7] was 2.4e+06 M⁻¹ s⁻¹, the pKd [8] was 7.25 and the koff [8] was 0.059 s⁻¹. The kon [8] was 1.05e+06 M⁻¹ s⁻¹, the pKd (IFN-γ-Rx T166M (human)) was 7.16 and the koff (IFN-γ-Rx T166M (human)) was 0.0639 s⁻¹. It also gave a kon (IFN-γ-Rx T166M (human)) of 933000 M⁻¹ s⁻¹, a pKd (IFN-γ-Rx T166Y (human)) of 7.08 and a koff (IFN-γ-Rx T166Y (human)) of 0.0782 s⁻¹. It also gave a kon (IFN-γ-Rx T166Y (human)) of 940000 M⁻¹ s⁻¹, a pKd [9] of 7.51 and a koff [9] of 0.0378 s⁻¹. The kon [9] was 1.24e+06 M⁻¹ s⁻¹.
